Reference: patent US20090017017A1 (SYMPHOGEN A S, published 2009)
Residue numbers refer to the chain shown, from its start.

B1: RhD243.109A05 (Fab, V domains shown)
VH: QVQLVESGGGVVQPGRSLRLSCAASGFTFSTYGMHWVRQAPGKGLEWVAVIWYDGSQKYYVDSVKGRFTISRDNSKNTLYLQMNSLRAEDTAVYYCAREVAVRGVIRYYYGMDVWGQGTTVTVSS
VL: DIQLTQSPSSLAASVGDRVIITCRSGQGIRNYLNWYQQKPGKAPKLLIYAASFLQSGVPSRFSGSGSGTDFTLTISSLQPEDFATYNCQQSYSDPWTFGQGTKVEIKR
notes: Tested as Fab in E. coli periplasmic extract (VH on human gamma 1 CH1, vector Em351)
B2: RhD293.109A09 (Fab, V domains shown)
VH: B1 VH with Q1E, S30N, Q57N, V61A, G111A
VL: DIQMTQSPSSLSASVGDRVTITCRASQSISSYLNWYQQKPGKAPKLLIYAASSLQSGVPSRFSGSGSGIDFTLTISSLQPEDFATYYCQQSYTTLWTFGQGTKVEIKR
notes: as for B1
B3: RhD202.158E07 (Fab, V domains shown)
VH: QVQLVESGGGVVQPGRSLRLSCAASGFTFSSYGMHWVRQAPGKGLEWVAVIWFDGSNRYYGDSVKGRVTISRDNSKNTLYLRMNSLRAEDTAVYYCAREFYTRSGLWSQGYSYYMDVWGKGTTVTVSS
VL: EIVLTQSPGTLSLSPGERATLSCRASQSVSSSYLAWYQHKPGQAPRLLIYGSSNRATGIPDRFSGSGSGTDFTVTISRLEPEDFAVYYCQQYGTAPYTFGQGTKLEIKR
notes: as for B1
B4: RhD239.126F09 (Fab, V domains shown)
VH: QVQLVESGGGVVQPGTSLRLSCAASGFTFRTYGMHWVRQAPGKGLEWVAYIWYDGSNKYYADSVKGRFTISRDNSKSTLNLQMNSLRAEDTAVYYCAREIASRGYSRYLYYFDSWGQGTLVTVSS
VL: DIQLTQSPSSLSASVGDRVTITCRASQSISSYLNWYQQKPGKAPKLLISAASSLQSGVPSRFSGSGSGTDFTLTISSLQREDYATYYCQQSYSTPPYTFGQGTKLEIKR
notes: as for B1
B5: RhD292.109A02 (Fab, V domains shown)
VH: QVQLVETGGGVVQPGRSLRLSCAASGFTFSSYGMHWVRQAPGKGLEWVAVIWSDGSNKYYADSVKGRFTISRDNSRNTLYLQMNSLRAEDTAVFYCAREQGGYSSSWYRRYYYYYMDVWGQGTTVTVSS
VL: B4 VL with L4M, Y32W, K45N, S49F, S53T, R80P, Y83F, T94S, P95S, P96V
notes: as for B1
B6: RhD205.160B12 (Fab, V domains shown)
VH: EVQLVETGGGLVKPGGSLRLSCAASGFTFRSYSMNWVRQAPGKGLEWVSSIGSSSTYTYSADSVKGRFTISRDNAKNSLYLQMNSLRAEDTAVYYCARGEPLNYDYIWGGYRFTIHWGQGTLVTVSS
VL: DIQLTQSPSFLSASVGDRVTITCRASHGISSYLAWYQQKPGKAPNLLIFPASTLQSGVPSRFSGSGSGTEFTLTISSLRPEDFATYYCQQLNSYSRWAFGQGTKVEVKR
notes: as for B1
B7: RhD245.164E06 (Fab, V domains shown)
VH: EVQLVQSGGGVVQPGRSPRLSCAASGFTFSSYGMHWVRQAPGKGLEWVAFIWYDGSNKYYADSVKGRFTISRDNSKNTLYLQMNSLRAEDTAVYYCARDLRNHVFWSGYSTSFDYWGQGTLVTVSS
VL: DIQMTQSPSSLSASVGDGITITCRASQSVRSYLNWYQQKPGKAPELLIYAASRLQSGVPSRFSGSGSGTDFTLTISSLQPEDFATYYCQHSYSTPVTFGQGTKVEVKR
notes: as for B1
B8: RhD204.128A03 (Fab, V domains shown)
VH: EVQLVESGGGVVQPGRSLRLSCAASGFSFSNYGMHWVRQAPGKGLEWVAVISYDGSEKYYADSVKGRFTISRDNSKKALYLQMNSLRAEDTAMYYCKNKVGATRRAVVAFDIWGQGTTVTVSS
VL: LSSELTQDPAVSVALGQTVRITCQGDSLRSYYANWYQQKPGQAPLSVIYGKNNRPSGIPDRFSGSNSGNTAFLTITGTQAEDEADYYCNSRDSSGNYRELFGGGTKLTVLG
notes: Tested as Fab in E. coli periplasmic extract (VH on human gamma 1 CH1, vector Em351); Lambda clone
B9: RhD244.158B10 (Fab, V domains shown)
VH: QVQLVESGGGVVQPGRSLRLSCAASGFSFSSYGMHWVRQAPGKGLEWVAIIWYDGSNKLYADSVKGRFTISRDNSRNTLYLQMSSVRAEDTAVYYCARDSVRGVSRWGTQKYYAMDVWGQGTTVTVSS
VL: DIQMTQSPSSLSASVGDRVIITCRASQSVNRYLNWYQQKPGKAPKLLIYAASSLQGGVPSRFSGSGSGTDFTLTISSLQREDFATYYCQQSYRTRTFGQGTKVEIKR
notes: as for B1
B10: RhD241.119B05 (Fab, V domains shown)
VH: QVQLQESGPGLVKPSETLSLICTVSGGSISSNYWSWIRQPPGKGLEWIGYIYYSGNTNYNPSLKSRVTISLDTSKNQFSLKLRSVTAADTAVYYCAREWRQYGSGIRGSRYYYGMDVWGQGTLVTVSS
VL: EIVLTQSPVTLSLSPGERATLSCRASQSVSSGYLAWYQQKPGQAPRLLIYGTSIRATGIPDRFSGSGSGTDFTLTISRLEPEDFAVYYCQQYGSSPLYSFGQGTKVDIKR
notes: as for B1
B11: RhD203.179F07 (Fab, V domains shown)
VH: EVQLVESGGGVVQPGRSLRLSCAASGFTFSNYGMHWVRQAPGKGLEWVAVIWYDGSNKYYADSVKGRFTISRDNSKNTLYLQMNSLRAEDTAVYYCAREMVSYSSSWYRRYYYYVMDVWGKGTTVTVSS
VL: QSALTQPASVSGSPGQSITISCTATSSDIGAYNYVSWYQHHPGKAPKVIITDVNKRPSGVPDRFSGSKSGNTASLTISGLQPEDEAEYSCCSYAGTYSYVFGTGTKVTVLS
notes: as for B1
B12: RhD242.181A03 (Fab, V domains shown)
VH: B11 VH with Y32H, V101A
VL: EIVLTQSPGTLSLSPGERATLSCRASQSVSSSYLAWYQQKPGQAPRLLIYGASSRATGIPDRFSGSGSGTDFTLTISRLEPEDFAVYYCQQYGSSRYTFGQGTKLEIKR
notes: as for B1
B13: RhD208.179B11 (Fab, V domains shown)
VH: B11 VH with S30R, N31T, Y32S, G33A, V115N
VL: QAVVTQEPSLTVSPGGTVTLTCASSTGSVTSGYYPNWFQQKPGQAPRPLISGTSNKLSWTPARFSGSLLGGKAALTVSGVQPEDEAVYYCLLYYGVPQPVVFGGGTKLTVLG
notes: as for B1
B14: RhD246.179B10 (Fab, V domains shown)
VH: B11 VH with S7T, N31S, V115N
VL: LSSELTQDPAVSVTLGQTVRITCQGDSLRHSYASWYQQKPGQAPILVIYGKNIRPSGIPDRFSGSTSGNTASLTITGAQAEDGGDYYCNSRDTSTDHYVFGDGTRVTVVG
notes: as for B1
B15: RhD158.119B06 (Fab, V domains shown)
VH: EVQLVETGGGVVQPGRSLRLSCAASGFSFSNFGFHWIRQSPGKGLEWVAVIWYDGSNRFYADSVKGRFTISRDSSKNMLFLQMDSLRAEDTAVYYCAREISMKVVIRRHYVMDVWGHGTTVTVSS
VL: DIQMTQSPSPLSASVGDRVSITCRASRGISNSLAWYQQKPGKVPKLLIYAASTLQSGVPSRFSGGGSGTDFTLTISSLQPEDVATYYCHTYNSAPFAFGPGTKVDIKR
notes: as for B1
B16: RhD240.125A09 (Fab, V domains shown)
VH: QLQLQESGPGLVKPSGTLSLTCAVSGGSMRSSNWWTWVRQPPGKGLEWIGEIHHGGSTNYNPSLQSRVTISVDKSKNRFSLKLSSVTAADTAVYHCARGRSYYDSSGHSFRGLVPFDIWGQGTMVTVSS
VL: DIQMTQSPSTLSASVGDRVTITCRASQSISSWLAWYQQKPGKAPKLLVYKTSSLEGGVPSRFSGSGSGTEFSLTIFRLQSDDFATYYCQQYNSFPYTFGQGTKLEFTR
notes: as for B1
B17: RhD206.160C06 (Fab, V domains shown)
VH: QVQLVESGGGVVQPGRSLRLSCAASGFTFSSYGMHWVRQAPGKGLEWVAIIWFDGSNKYYADSVKGRFTISRDNSKNTLYLQINSLRAEDTAVYYCAKEHGYYSSSWYRNYYYYAMDVWGQGTTVTVSS
VL: DIQMTQSPSSLSASVGDRVTITCRASQSIRRYLNWYQKKPGKAPKLLIYAASSLQSGVPSRFSGSGSGTDFTLTISSLQPEDFATYYCQQSYRTQGLTFGGGTKVEIKR
notes: as for B1

Biological target: T1, Rhesus D antigen (human, UniProt Q02161 2-417)
T1 construct: whole, on cells; Presented on RhD(+) erythrocytes; also called RhD; RhD antigen
T1 sequence (looked up): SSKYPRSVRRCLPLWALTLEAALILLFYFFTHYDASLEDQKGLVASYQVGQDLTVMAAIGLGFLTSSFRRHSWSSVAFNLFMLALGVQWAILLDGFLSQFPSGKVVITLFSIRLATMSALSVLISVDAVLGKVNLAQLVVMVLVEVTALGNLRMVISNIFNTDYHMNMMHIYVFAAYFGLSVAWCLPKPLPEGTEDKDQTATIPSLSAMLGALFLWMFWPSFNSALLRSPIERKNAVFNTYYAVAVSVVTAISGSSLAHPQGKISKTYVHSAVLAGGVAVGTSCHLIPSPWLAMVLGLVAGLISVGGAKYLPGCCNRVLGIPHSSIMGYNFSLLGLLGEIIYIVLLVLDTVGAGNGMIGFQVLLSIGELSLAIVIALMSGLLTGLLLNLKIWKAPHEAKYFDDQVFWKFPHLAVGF
Assay: agglutination assay, Fab periplasmic extract on RhD(+)/RhD(-) RBC mix
Method: After each round of panning single colonies were picked for analysis of their binding properties to red blood cells in agglutination assays. Briefly, single colonies were inoculated into 2×YT/100 μg/mL carbenicillin/1% glucose and shaken overnight at 37° C. The next day, DeepWell plates were inoculated using 900 μl 2×YT/100 μg/mL carbenicillin/0.1% glucose and 10 μl overnight culture. The plates were shaken for two hours at 37° C., before Fab induction was performed with addition of 300 μl 2×YT/100 μg/mL carbenicillin/0.25 mM IPTG per well. The plate was shaken overnight at 30° C. The following day, the bacteria were pelleted by centrifugation (3200×g, 4° C., 10 minutes), and re-suspended in 100 μl of 0.8 M NaCl, 0.2×PBS, 8 mM EDTA, and incubated for 15 minutes on ice in order to perform a periplasmic extraction of the Fab fragments. The plate was transferred to −20° C. and finally the suspension was thawed and centrifugation was performed for 10 minutes at 4° C. and 3200×g. The periplasmic extract was used in ELISA assays for analysis of Fab content and in agglutination assays to evaluate the binding potential of the individual Fab fragments.
The agglutination assay was performed as follows: RhD(−) and RhD(+) RBC were mixed in a 1:1 ratio, and washed 3 times in PBS. After the final wash, the cell mix was re-suspended in 1% BSA in PBS at a density of 10% cells, 50 μl was added to each well of a 96-plate. Periplasmic extracts were added to the wells. As a positive control Rhesogamma P immunoglobulin (Aventis) was used according to the manufacturer's instructions. The plates were incubated for one hour at room temperature with gentle shaking. The cells were washed three times with PBS, before the secondary antibody was added (goat anti-human Fab/FITC conjugate, Sigma F5512) in a 1:100 dilution. The plates were left for agglutination for one hour at room temperature without shaking. Fab fragments positive in the agglutination assay was determined by visual inspection, and recorded by taking a picture. Quantization of the binding activity of the Fab fragments was performed by FACS analysis of the agglutination samples.

Binding result, binds:
B1, B2, B3, B4, B5, B6, B7, B8, B9, B10, B11, B12, B13, B14, B15, B16, B17
